Our source for the Kd values is PMC4469990 (2015).

Experiment [1] concerns the target Factor VIII A1/A3C1C2 dimer A1/A3C1C2 (Homo sapiens) (UniProt P00451). The experiment in a line: FXa generation assay. The following applies: cited from earlier work.
For experiment [2] the target is unchanged. The following applies: cited from earlier work.
Experiment [3] has as its target Factor VIII A3C1C2 subunit A3C1C2 (Homo sapiens) (UniProt P00451). The following applies: cited from earlier work.
Experiment [4] deals with T1, Factor VIIIa A1/A3C1C2 dimer A1/A3C1C2 (Homo sapiens, UniProt P00451).
T1 chain 1: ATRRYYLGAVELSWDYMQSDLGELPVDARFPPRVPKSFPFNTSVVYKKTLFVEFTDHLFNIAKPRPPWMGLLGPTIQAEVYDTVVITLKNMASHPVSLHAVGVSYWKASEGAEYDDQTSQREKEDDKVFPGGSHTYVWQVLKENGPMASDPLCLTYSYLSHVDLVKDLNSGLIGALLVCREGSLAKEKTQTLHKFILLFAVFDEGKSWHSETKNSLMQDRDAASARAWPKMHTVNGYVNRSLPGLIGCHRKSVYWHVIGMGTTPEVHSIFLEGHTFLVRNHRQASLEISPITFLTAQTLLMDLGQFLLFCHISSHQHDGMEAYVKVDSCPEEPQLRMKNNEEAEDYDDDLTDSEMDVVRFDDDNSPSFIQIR
T1 chain 2: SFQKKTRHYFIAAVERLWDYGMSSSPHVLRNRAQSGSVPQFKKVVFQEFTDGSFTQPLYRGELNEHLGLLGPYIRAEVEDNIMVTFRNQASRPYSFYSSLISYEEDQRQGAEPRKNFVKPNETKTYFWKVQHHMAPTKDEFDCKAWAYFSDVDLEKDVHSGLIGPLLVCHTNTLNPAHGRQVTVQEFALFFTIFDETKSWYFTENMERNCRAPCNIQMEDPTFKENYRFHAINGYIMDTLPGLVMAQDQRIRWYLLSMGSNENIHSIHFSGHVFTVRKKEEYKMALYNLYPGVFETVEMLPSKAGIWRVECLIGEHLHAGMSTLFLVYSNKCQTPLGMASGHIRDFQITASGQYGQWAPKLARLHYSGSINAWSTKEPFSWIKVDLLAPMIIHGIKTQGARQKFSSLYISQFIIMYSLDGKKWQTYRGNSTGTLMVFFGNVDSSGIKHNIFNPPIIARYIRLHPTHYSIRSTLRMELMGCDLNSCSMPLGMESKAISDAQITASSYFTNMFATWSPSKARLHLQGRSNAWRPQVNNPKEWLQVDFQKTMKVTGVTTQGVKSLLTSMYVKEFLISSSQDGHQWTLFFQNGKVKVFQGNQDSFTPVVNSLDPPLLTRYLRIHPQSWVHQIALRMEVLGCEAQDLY
The experiment in a line: FVIIIa reconstitution assay.

Read-outs that look alike come from different tables or passages of the source.

As usually defined, the Kd is the equilibrium constant for the complex coming apart. As to “Factor VIII A2 subunit A2 (from UniProt P00451)”, the dissociation constant (Kd) is 30 nM in experiment [1] and 260 nM in experiment [2]. For the molecule “Factor VIII A1 subunit A1 (from UniProt P00451)”, in experiment [3], the Kd was 60 nM.

B1: Factor VIIIa A2 subunit A2 (protein)
chain: SVAKKHPKTWVHYIAAEEEDWDYAPLVLAPDDRSYKSQYLNNGPQRIGRKYKKVRFMAYTDETFKTREAIQHESGILGPLLYGEVGDTLLIIFKNQASRPYNIYPHGITDVRPLYSRRLPKGVKHLKDFPILPGEIFKYKWTVTVEDGPTKSDPRCLTRYYSSFVNMERDLASGLIGPLLICYKESVDQRGNQIMSDKRNVILFSVFDENRSWYLTENIQRFLPNPAGVQLEDPEFQASNIMHSINGYVFDSLQLSVCLHEVAYWYILSIGAQTDFLSVFFSGYTFKHKMVYEDTLTLFPFSGETVFMSMENPGLWILGCHNSDFRNRGMTALLKVSSCDKNTGDYYEDSYEDISAYLLSKNNAIEPR
In the case of B1, binding in experiment [4] was put at a Kd of 56.3 nM.

B2: Factor VIIIa A2 subunit A2 (protein)
chain: SVAKKHPKTWVHYIAAEEEDWDYAPLVLAPDDRSYKSQYLNNGPQRIGRKYKKVRFMAYTDETFKTREAIQHESGILGPLLYGEVGDTLLIIFKNQASRPYNIYPHGITDVRPLYSRRLPKGVKHLKVFPILPGEIFKYKWTVTVEDGPTKSDPRCLTRYYSSFVNMERDLASGLIGPLLICYKESVDQRGNQIMSDKRNVILFSVFDENRSWYLTENIQRFLPNPAGVQLEDPEFQASNIMHSINGYVFDSLQLSVCLHEVAYWYILSIGAQTDFLSVFFSGYTFKHKMVYEDTLTLFPFSGETVFMSMENPGLWILGCHNSDFRNRGMTALLKVSSCDKNTGDYYEDSYEDISAYLLSKNNAIEPR
In experiment [4], B2 came in with a Kd of 10 nM.
